We go through two molecules from publication PMC2752207 (Biomaterials, 2009).

Bridge positions count the residues as written; N and C are the ends. Ends that are not written are not given here. * marks the point of attachment. Acryloyl = C=CC(=O)*

For one assay, the target named is recombinant human TNF-α (human, UniProt P01375 77-233). The assay is described as follows: uptake of the cytokine into peptide-functionalised hydrogels.
For assay [1], the target named is AlexaFluor555-labeled TNFα (human, UniProt P01375 77-233, AlexaFluor 555 label (protein labeling kit; sites not stated)). The assay can be described thus: FRET or BRET. On the technique in general: Bioluminescence resonance energy transfer reports proximity on the nanometre scale.
Sequence of AlexaFluor555-labeled TNFα (P01375 77-233): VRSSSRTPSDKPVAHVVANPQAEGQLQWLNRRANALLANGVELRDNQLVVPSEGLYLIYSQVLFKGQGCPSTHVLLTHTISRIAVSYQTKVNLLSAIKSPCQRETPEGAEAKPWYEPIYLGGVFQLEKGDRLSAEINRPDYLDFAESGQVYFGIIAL

Sequence of recombinant human TNF-α (P01375 77-233): as above

Acryloyl-YCWSQYLCY (disulfide 2-8 (inferred)) [acryl-WP9QY]: the binding result with recombinant human TNF-α is on record as “binds”.

B1: acryl-(FITC)WP9QY (peptide)
peptide: KYCWSQYLCY
modifications: N-terminus acrylated (acrylic acid); FITC conjugated to the additional lysine; intramolecular disulfide bond
On to B1, for which the binding result in assay [1] is recorded as “binds”.
